# According to the Immune Epitope Database (IEDB):
# Assays:
# HLA-A*01:01 = test: IEDB peptide-MHC binding, purified MHC/direct/fluorescence; filed as Kd, often an IC50 or EC50 that approximates it; ≥ and ≤ were set here for values at or beyond the usual limits of such assays
# HLA-A*02:01 = test: as above
# HLA-A*11:01 = test: as above
# HLA-A*26:02 = test: as above; details: source organism: Ravn virus - Ravn, Kenya, 1987
# HLA-A*26:03 = test: as above; details: source organism: Ravn virus - Ravn, Kenya, 1987
# HLA-A*31:01 = test: as above
# HLA-A*68:02 = test: as above; details: source organism: Marburg virus - Musoke, Kenya, 1980
# HLA-A*69:01 = test: as above
# HLA-B*07:02 = test: as above
# HLA-B*08:02 = test: as above
# HLA-B*08:03 = test: as above; details: source organism: Ravn virus - Ravn, Kenya, 1987
# HLA-B*15:17 [1] = test: as above; details: source organism: Marburg virus - Musoke, Kenya, 1980
# HLA-B*18:01 = test: as above
# HLA-B*27:05 = test: as above
# HLA-B*39:01 [2] = test: as above; details: source organism: Ravn virus - Ravn, Kenya, 1987
# HLA-B*40:01 = test: as above
# HLA-B*44:02 = test: as above
# HLA-B*48:01 = test: as above
# HLA-B*57:01 = test: as above
# HLA-B*58:01 = test: as above
# HLA-B*15:02 = test: as above; details: source organism: dengue virus type 4
# HLA-B*46:01 = test: as above
# HLA-A*02:10 = test: as above; details: source organism: Rickettsia typhi
# HLA-A*02:11 = test: as above
# HLA-A*02:12 = test: as above
# HLA-A*02:19 = test: as above; details: source organism: Rickettsia typhi
# HLA-A*02:50 = test: as above; details: source organism: Rickettsia typhi
# HLA-A*03:01 = test: as above
# HLA-A*23:01 = test: as above; details: source organism: Rickettsia typhi
# HLA-A*24:03 = test: as above; details: source organism: Rickettsia typhi
# HLA-A*29:02 = test: as above; details: source organism: Rickettsia typhi
# HLA-A*30:01 [3] = test: as above; details: source organism: Rickettsia typhi
# HLA-A*80:01 = test: as above; details: source organism: Rickettsia typhi
# HLA-B*15:01 = test: as above
# HLA-B*51:01 = test: as above; details: source organism: Rickettsia typhi
# HLA-A*02:03 = test: as above; details: source organism: Giardia lamblia ATCC 50803
# HLA-A*26:01 = test: as above; details: source organism: Giardia lamblia ATCC 50803
# HLA-B*08:01 = test: as above; details: source organism: Giardia lamblia ATCC 50803
# HLA-B*38:01 = test: as above; details: source organism: Giardia lamblia ATCC 50803
# HLA-A*30:01 [4] = test: IEDB peptide-MHC binding, purified MHC/competitive/fluorescence; filed as Kd, often an IC50 or EC50 that approximates it; ≥ and ≤ were set here for values at or beyond the usual limits of such assays; details: source organism: Giardia lamblia ATCC 50803
# HLA-B*15:09 = test: as above; details: source organism: Giardia lamblia ATCC 50803
# HLA-B*15:17 [5] = test: as above; details: source organism: Giardia lamblia ATCC 50803
# HLA-B*39:01 [6] = test: as above; details: source organism: Giardia lamblia ATCC 50803
# [7] = source organism: Marburg virus - Musoke, Kenya, 1980
# [8] = source organism: Rickettsia typhi
# [9] = source organism: Rickettsia prowazekii
# [10] = source organism: Giardia lamblia ATCC 50803
sequence,measurement,setting,value
AEALLADGL,Kd,HLA-A*01:01; [7],≥ 20 µM
same,Kd,HLA-A*02:01; [7],≥ 20 µM
same,Kd,HLA-A*11:01; [7],≥ 20 µM
same,Kd,HLA-A*26:02,≥ 20 µM
same,Kd,HLA-A*26:03,≥ 20 µM
same,Kd,HLA-A*31:01; [7],≥ 20 µM
same,Kd,HLA-A*68:02,≥ 20 µM
same,Kd,HLA-A*69:01; [7],≥ 20 µM
same,Kd,HLA-B*07:02; [7],≥ 20 µM
same,Kd,"HLA-B*08:02; source organism: Ravn virus - Ravn, Kenya, 1987",≥ 20 µM
same,Kd,HLA-B*08:03,≥ 20 µM
same,Kd,HLA-B*15:17 [1],≥ 20 µM
same,Kd,HLA-B*18:01; [7],1.75 µM
same,Kd,HLA-B*27:05; [7],≥ 20 µM
same,Kd,HLA-B*39:01 [2],≥ 20 µM
same,Kd,HLA-B*40:01; [7],0.0113 µM
same,Kd,HLA-B*44:02; [7],≥ 10 µM
same,Kd,HLA-B*48:01; [7],≥ 20 µM
same,Kd,HLA-B*57:01; [7],≥ 20 µM
same,Kd,HLA-B*58:01; [7],≥ 20 µM
AQEDDQYVF,Kd,HLA-B*15:02,≥ 20 µM
same,Kd,HLA-B*46:01; source organism: dengue virus type 4,≥ 20 µM
ELYPTVNTY,Kd,HLA-A*02:10,≥ 20 µM
same,Kd,HLA-A*02:11; [8],≥ 20 µM
same,Kd,HLA-A*02:12; [8],≥ 20 µM
same,Kd,HLA-A*02:19,≥ 20 µM
same,Kd,HLA-A*02:50,≥ 20 µM
same,Kd,HLA-A*03:01; [9],2.02 µM
same,Kd,HLA-A*23:01,≥ 20 µM
same,Kd,HLA-A*24:03,≥ 20 µM
same,Kd,HLA-A*29:02,0.055 µM
same,Kd,HLA-A*30:01 [3],≥ 20 µM
same,Kd,HLA-A*69:01; [9],14.5 µM
same,Kd,HLA-A*80:01,4.5 µM
same,Kd,HLA-B*15:01; [9],0.228 µM
same,Kd,HLA-B*44:02; [8],≥ 20 µM
same,Kd,HLA-B*51:01,≥ 20 µM
same,Kd,HLA-B*57:01; [8],≥ 20 µM
LPVFATIGL,Kd,HLA-A*01:01; [10],≥ 20 µM
same,Kd,HLA-A*02:01; [10],7.53 µM
same,Kd,HLA-A*02:03,≥ 20 µM
same,Kd,HLA-A*02:11; [10],0.146 µM
same,Kd,HLA-A*02:12; [10],0.393 µM
same,Kd,HLA-A*03:01; [10],≥ 20 µM
same,Kd,HLA-A*11:01; [10],≥ 20 µM
same,Kd,HLA-A*26:01,≥ 20 µM
same,Kd,HLA-A*31:01; [10],≥ 20 µM
same,Kd,HLA-A*69:01; [10],0.0117 µM
same,Kd,HLA-B*07:02; [10],0.0583 µM
same,Kd,HLA-B*08:01,≥ 20 µM
same,Kd,HLA-B*08:02; [10],≥ 20 µM
same,Kd,HLA-B*15:01; [10],≥ 20 µM
same,Kd,HLA-B*18:01; [10],3.1 µM
same,Kd,HLA-B*27:05; [10],≥ 20 µM
same,Kd,HLA-B*38:01,≥ 20 µM
same,Kd,HLA-B*40:01; [10],≥ 20 µM
same,Kd,HLA-B*46:01; [10],≥ 20 µM
same,Kd,HLA-B*48:01; [10],≥ 20 µM
same,Kd,HLA-B*57:01; [10],≥ 20 µM
same,Kd,HLA-B*58:01; [10],≥ 20 µM
same,Kd,HLA-A*30:01 [4],≥ 20 µM
same,Kd,HLA-B*15:09,1.98 µM
same,Kd,HLA-B*15:17 [5],≥ 20 µM
same,Kd,HLA-B*39:01 [6],0.0902 µM
